Measurements: PMC4838375

How the values were obtained:
Experiment in all cases: ITC
[1] = target: PHDVC5HCH_(NSD1) H2205R (mouse) (UniProt O88491)
[2] = target: PHDVC5HCH_(NSD1) tandem domain (murine NSD1, Glu2117–Asp2207), wild type (mouse)
[3] = target: PHDVC5HCH_(NSD1) R2152Q (mouse) (UniProt O88491)
[4] = target: PHDVC5HCH_(NSD1) E2204A (mouse) (UniProt O88491)

Row | Substance | Kd [1] [µM] | Kd [2] [µM] | dH [2] [kcal/mol] | stoichiometry N [2] | Kd [3] [µM] | dH [3] [kcal/mol] | Kd [4] [µM]
1 | C2HR_(Nizp1) synthetic peptide (murine Nizp1, E397-K434), wild type | 27.2 | 3.8 | 4.1 | 1.1 | 4.9 | 3.5 | 45.2
2 | C2HR_(Nizp1) R417A (peptide) | – | 36 | 1.5 | 1.1 | – | – | –
3 | C2HR_(Nizp1) R415A (peptide) | – | 6.1 | 2.2 | 1.1 | – | – | –
4 | C2HR_(Nizp1) R427A (peptide) | – | – | 1.7 | – | – | – | –
